{"source": "paper PMC8103790", "proteins": {"B1": {"name": "wild-type human COX-2 (huCOX-2) (Homo sapiens) (protein)", "chain": "ANPCCSHPCQNRGVCMSVGFDQYKCDCTRTGFYGENCSTPEFLTRIKLFLKPTPNTVHYILTHFKGFWNVVNNIPFLRNAIMSYVLTSRSHLIDSPPTYNADYGYKSWEAFSNLSYYTRALPPVPDDCPTPLGVKGKKQLPDSNEIVEKLLLRRKFIPDPQGSNMMFAFFAQHFTHQFFKTDHKRGPAFTNGLGHGVDLNHIYGETLARQRKLRLFKDGKMKYQIIDGEMYPPTVKDTQAEMIYPPQVPEHLRFAVGQEVFGLVPGLMMYATIWLREHNRVCDVLKQEHPEWGDEQLFQTSRLILIGETIKIVIEDYVQHLSGYHFKLKFDPELLFNKQFQYQNRIAAEFNTLYHWHPLLPDTFQIHDQKYNYQQFIYNNSILLEHGITQFVESFTRQIAGRVAGGRNVPPAVQKVSQASIDQSRQMKYQSFNEYRKRFMLKPYESFEELTGEKEMSAELEALYGDIDAVELYPALLVEKPRPDAIFGETMVEVGAPFSLKGLMGNVICSPAYWKPSTFGGEVGFQIINTASIQSLICNNVKGCPFTSFSVPDPELIKTVTINASSSRSGLDDINPTVLLKERSTEL"}}, "substrate": "CCCCC/C=C\\C/C=C\\C/C=C\\C/C=C\\CCCC(=O)O", "assay": "purified protein", "conditions": "heme cyclooxygenase channel"}
{"protein": "B1", "values": [{"measurement": "Km", "result": "17.7 ± 1.9", "unit": "µM"}]}
